This test addresses T1, GST-Dun1 (Saccharomyces cerevisiae, UniProt P39009 1-513).
T1 construct: Control GST fusion; The species is stated only in the background paragraph, not where the pull-down is told; not shown: glutathione S-transferase (GST) fusion partner
T1 sequence (looked up): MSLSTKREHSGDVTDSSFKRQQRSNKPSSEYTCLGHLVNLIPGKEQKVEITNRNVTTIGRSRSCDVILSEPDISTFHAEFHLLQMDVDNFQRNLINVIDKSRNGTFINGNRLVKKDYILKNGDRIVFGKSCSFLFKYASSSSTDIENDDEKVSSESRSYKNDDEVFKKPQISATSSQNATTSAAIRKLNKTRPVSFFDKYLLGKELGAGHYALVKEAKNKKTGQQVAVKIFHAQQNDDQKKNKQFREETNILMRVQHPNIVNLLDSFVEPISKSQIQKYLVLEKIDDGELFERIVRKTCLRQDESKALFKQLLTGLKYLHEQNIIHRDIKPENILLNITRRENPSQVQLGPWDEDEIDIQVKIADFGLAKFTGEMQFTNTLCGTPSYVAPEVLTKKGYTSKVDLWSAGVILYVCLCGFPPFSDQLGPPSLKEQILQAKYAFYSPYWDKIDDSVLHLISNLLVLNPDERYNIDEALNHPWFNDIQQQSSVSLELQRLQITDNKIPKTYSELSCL
The test can be described thus: GST pull-down on glutathione beads from baculovirus extracts, immunoblot with anti Chk1 antibodies.

B1: His6-tagged hChk1 (enzyme)
chain: MAVPFVEDWDLVQTLGEGAYGEVQLAVNRVTEEAVAVKIVDMKRAVDCPENIKKEICINKMLNHENVVKFYGHRREGNIQYLFLEYCSGGELFDRIEPDIGMPEPDAQRFFHQLMAGVVYLHGIGITHRDIKPENLLLDERDNLKISDFGLATVFRYNNRERLLNKMCGTLPYVAPELLKRREFHAEPVDVWSCGIVLTAMLAGELPWDQPSDSCQEYSDWKEKKTYLNPWKKIDSAPLALLHKILVENPSARITIPDIKKDRWYNKPLKKGAKRPRVTSGGVSESPSGFSKHIQSNLDFSPVNSASSEENVKYSSSQPEPRTGLSLWDTSPSYIDKLVQGISFSQPTCPDHMLLNSQLLGTPGSSQNPWQRLVKRMTRFFTKLDADKSYQCLKETCEKLGYQWKKSCMNQVTISTTDRRNNKLIFKVNLLEMDDKILVDFRLSKGDGLEFKRHFLKIKGKLIDIVSSQKVWLPATHHHHHH
notes: Expressed in baculovirus; used as a crude baculovirus extract in the pull-down and purified in the kinase assay; also called hChk1-His6; His6-tagged hChk1 derivative
Consider B1, for which the binding result was “no binding”.

For the origin of these results see patent USRE40789 (BAYLOR COLLEGE OF MEDICINE, dated 2009).
